# Measured values: paper PMC9482650, “Quantitative fragmentomics allow affinity mapping of interactomes” (Nature Communications, 2022)
# T1: MPDZ_10, O75970
# T1 sequence (O75970 1624-1722, limits assumed, looked up): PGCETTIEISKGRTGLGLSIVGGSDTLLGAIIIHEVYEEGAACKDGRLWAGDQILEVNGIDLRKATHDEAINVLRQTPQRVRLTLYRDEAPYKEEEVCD
# T2: PARD3B_1, Q8TEW8
# T2 sequence (Q8TEW8 196-299, limits assumed, looked up): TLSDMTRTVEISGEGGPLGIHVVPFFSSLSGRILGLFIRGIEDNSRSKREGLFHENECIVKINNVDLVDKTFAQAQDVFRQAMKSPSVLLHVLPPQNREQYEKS
# T3: PDZRN3_1, Q9UPQ7
# T3 sequence (Q9UPQ7 244-349, limits assumed, looked up): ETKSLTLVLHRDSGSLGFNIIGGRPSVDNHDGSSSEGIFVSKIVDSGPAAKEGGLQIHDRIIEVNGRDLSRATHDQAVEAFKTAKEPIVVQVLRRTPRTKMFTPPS
# T4: APBA1_2, Q02410
# T4 sequence (Q02410 742-832, limits assumed, looked up): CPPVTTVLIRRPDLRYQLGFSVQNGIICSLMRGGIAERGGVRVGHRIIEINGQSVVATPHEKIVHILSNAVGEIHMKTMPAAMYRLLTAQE
# T5: SNTG2, Q9NY99
# T5 sequence (Q9NY99 68-166, limits assumed, looked up): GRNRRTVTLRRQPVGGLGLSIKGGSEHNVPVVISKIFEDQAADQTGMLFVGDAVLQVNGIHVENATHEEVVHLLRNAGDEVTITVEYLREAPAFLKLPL
# T6: PTPN13_1, Q12923
# T6 sequence (Q12923 1088-1188, limits assumed, looked up): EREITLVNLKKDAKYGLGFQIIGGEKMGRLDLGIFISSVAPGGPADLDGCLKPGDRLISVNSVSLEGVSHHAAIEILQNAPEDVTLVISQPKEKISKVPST
# T7: DLG3_3, Q92796
# T7 sequence (Q92796 374-475, limits assumed, looked up): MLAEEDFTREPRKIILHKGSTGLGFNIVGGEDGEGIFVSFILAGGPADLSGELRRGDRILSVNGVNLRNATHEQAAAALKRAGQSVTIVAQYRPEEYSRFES
# T8: NHERF3_1, Q5T2W1
# T8 sequence (Q5T2W1 4-100, limits assumed, looked up): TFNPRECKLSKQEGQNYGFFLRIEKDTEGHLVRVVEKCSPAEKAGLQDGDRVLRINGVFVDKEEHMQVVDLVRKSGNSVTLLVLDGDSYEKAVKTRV
# T9: APBA2_1, Q99767
# T9 sequence (Q99767 563-664, limits assumed, looked up): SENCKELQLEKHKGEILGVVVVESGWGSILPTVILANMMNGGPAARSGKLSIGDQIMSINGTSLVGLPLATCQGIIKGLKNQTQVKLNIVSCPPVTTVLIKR
# T10: TIAM2, Q8IVF5
# T10 sequence (Q8IVF5 885-986, limits assumed, looked up): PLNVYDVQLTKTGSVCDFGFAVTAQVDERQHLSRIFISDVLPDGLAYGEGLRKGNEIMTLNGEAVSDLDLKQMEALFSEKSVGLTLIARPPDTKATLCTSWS
# Target: T1, MPDZ_10, O75970
# Experiment: holdup assay
# Design: key: below the threshold = too weak to quantify, mostly under pKd 3.1 to 4
# Conditions: plain residues with an end cap or a label only (N-terminal biotin on a linker: ado-ado)
row,Binder,pKd
1,"RHGSCVETSL [TMEM151B, Q8IW70]",below the threshold

# Target: FRMPD2_2, Q68DX3
# Sequence (Q68DX3 944-1038): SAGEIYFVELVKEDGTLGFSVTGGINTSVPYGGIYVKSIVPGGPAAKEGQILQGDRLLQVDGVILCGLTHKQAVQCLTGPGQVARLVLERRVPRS
# Experiment: holdup assay
# Design: key: below the threshold = too weak to quantify, mostly under pKd 3.1 to 4
# Conditions: plain residues with an end cap or a label only (N-terminal biotin on a linker: ado-ado)
row,Binder,pKd
1,"RHGSCVETSL [TMEM151B, Q8IW70]",3.57

# Target: FRMPD2_3, Q68DX3
# Sequence (Q68DX3 1073-1166): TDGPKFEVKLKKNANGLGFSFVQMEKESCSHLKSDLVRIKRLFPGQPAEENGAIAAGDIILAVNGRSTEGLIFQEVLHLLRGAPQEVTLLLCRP
# Experiment: holdup assay
# Design: key: below the threshold = too weak to quantify, mostly under pKd 3.1 to 4
# Conditions: plain residues with an end cap or a label only (N-terminal biotin on a linker: ado-ado)
row,Binder,pKd
1,"RHGSCVETSL [TMEM151B, Q8IW70]",below the threshold

# Target: LAP2, Q96RT1
# Sequence (Q96RT1 other isoform, or with tags, fused parts or gaps): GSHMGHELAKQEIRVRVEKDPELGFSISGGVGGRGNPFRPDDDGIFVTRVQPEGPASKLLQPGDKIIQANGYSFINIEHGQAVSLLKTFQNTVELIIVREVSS
# Experiment: holdup assay
# Design: key: below the threshold = too weak to quantify, mostly under pKd 3.1 to 4
# Conditions: plain residues with an end cap or a label only (N-terminal biotin on a linker: ado-ado)
row,Binder,pKd
1,"RHGSCVETSL [TMEM151B, Q8IW70]",3.94

# Target: GRIP2_4, Q9C0E4
# Sequence (Q9C0E4 446-548): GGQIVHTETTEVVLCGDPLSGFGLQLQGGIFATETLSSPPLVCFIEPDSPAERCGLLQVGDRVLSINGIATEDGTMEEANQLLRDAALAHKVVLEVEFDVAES
# Experiment: holdup assay
# Design: key: below the threshold = too weak to quantify, mostly under pKd 3.1 to 4
# Conditions: plain residues with an end cap or a label only (N-terminal biotin on a linker: ado-ado)
row,Binder,pKd
1,"RHGSCVETSL [TMEM151B, Q8IW70]",below the threshold

# Target: GRIP2_3, Q9C0E4
# Sequence (Q9C0E4 238-339): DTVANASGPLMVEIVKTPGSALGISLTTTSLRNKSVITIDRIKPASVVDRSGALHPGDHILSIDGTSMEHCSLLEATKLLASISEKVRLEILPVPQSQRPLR
# Experiment: holdup assay
# Design: key: below the threshold = too weak to quantify, mostly under pKd 3.1 to 4
# Conditions: plain residues with an end cap or a label only (N-terminal biotin on a linker: ado-ado)
row,Binder,pKd
1,"RHGSCVETSL [TMEM151B, Q8IW70]",below the threshold

# Target: T2, PARD3B_1, Q8TEW8
# Experiment: holdup assay
# Design: key: below the threshold = too weak to quantify, mostly under pKd 3.1 to 4
# Conditions: plain residues with an end cap or a label only (N-terminal biotin on a linker: ado-ado)
row,Binder,pKd
1,"RHGSCVETSL [TMEM151B, Q8IW70]",3.95

# Target: T3, PDZRN3_1, Q9UPQ7
# Experiment: holdup assay
# Design: key: below the threshold = too weak to quantify, mostly under pKd 3.1 to 4
# Conditions: plain residues with an end cap or a label only (N-terminal biotin on a linker: ado-ado)
row,Binder,pKd
1,"RHGSCVETSL [TMEM151B, Q8IW70]",5.2

# Target: LNX1_2, Q8TBB1
# Sequence (Q8TBB1 371-470): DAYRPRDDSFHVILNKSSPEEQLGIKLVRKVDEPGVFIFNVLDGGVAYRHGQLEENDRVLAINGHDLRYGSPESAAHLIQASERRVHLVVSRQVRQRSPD
# Experiment: holdup assay
# Design: key: below the threshold = too weak to quantify, mostly under pKd 3.1 to 4
# Conditions: plain residues with an end cap or a label only (N-terminal biotin on a linker: ado-ado)
row,Binder,pKd
1,"RHGSCVETSL [TMEM151B, Q8IW70]",below the threshold

# Target: T4, APBA1_2, Q02410
# Experiment: holdup assay
# Design: key: below the threshold = too weak to quantify, mostly under pKd 3.1 to 4
# Conditions: plain residues with an end cap or a label only (N-terminal biotin on a linker: ado-ado)
row,Binder,pKd
1,"RHGSCVETSL [TMEM151B, Q8IW70]",3.97

# Target: T5, SNTG2, Q9NY99
# Experiment: holdup assay
# Design: key: below the threshold = too weak to quantify, mostly under pKd 3.1 to 4
# Conditions: plain residues with an end cap or a label only (N-terminal biotin on a linker: ado-ado)
row,Binder,pKd
1,"RHGSCVETSL [TMEM151B, Q8IW70]",4.8

# Target: HTRA2, O43464
# Sequence (O43464 355-458): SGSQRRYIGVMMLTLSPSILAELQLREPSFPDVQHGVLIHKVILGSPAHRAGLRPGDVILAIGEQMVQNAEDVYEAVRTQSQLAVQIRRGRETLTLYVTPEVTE
# Experiment: holdup assay
# Design: key: below the threshold = too weak to quantify, mostly under pKd 3.1 to 4
# Conditions: plain residues with an end cap or a label only (N-terminal biotin on a linker: ado-ado)
row,Binder,pKd
1,"RHGSCVETSL [TMEM151B, Q8IW70]",below the threshold

# Target: GRIP2_6, Q9C0E4
# Sequence (Q9C0E4 648-740): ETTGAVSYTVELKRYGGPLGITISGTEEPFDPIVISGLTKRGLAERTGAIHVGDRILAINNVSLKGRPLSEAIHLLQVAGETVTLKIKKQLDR
# Experiment: holdup assay
# Design: key: below the threshold = too weak to quantify, mostly under pKd 3.1 to 4
# Conditions: plain residues with an end cap or a label only (N-terminal biotin on a linker: ado-ado)
row,Binder,pKd
1,"RHGSCVETSL [TMEM151B, Q8IW70]",below the threshold

# Target: Inadl_2, Q8NI35
# Sequence (Q8NI35 238-335): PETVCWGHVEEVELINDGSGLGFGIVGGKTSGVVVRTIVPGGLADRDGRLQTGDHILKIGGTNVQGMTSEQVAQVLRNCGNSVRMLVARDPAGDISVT
# Experiment: holdup assay
# Design: key: below the threshold = too weak to quantify, mostly under pKd 3.1 to 4
# Conditions: plain residues with an end cap or a label only (N-terminal biotin on a linker: ado-ado)
row,Binder,pKd
1,"RHGSCVETSL [TMEM151B, Q8IW70]",below the threshold

# Target: TJP1_3, Q07157
# Sequence (Q07157 416-512): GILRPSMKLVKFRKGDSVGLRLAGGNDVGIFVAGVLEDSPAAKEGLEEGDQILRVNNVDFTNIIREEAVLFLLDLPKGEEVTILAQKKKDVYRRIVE
# Experiment: holdup assay
# Design: key: below the threshold = too weak to quantify, mostly under pKd 3.1 to 4
# Conditions: plain residues with an end cap or a label only (N-terminal biotin on a linker: ado-ado)
row,Binder,pKd
1,"RHGSCVETSL [TMEM151B, Q8IW70]",below the threshold

# Target: MAGI1_1, Q96QZ7
# Sequence (Q96QZ7 1-106): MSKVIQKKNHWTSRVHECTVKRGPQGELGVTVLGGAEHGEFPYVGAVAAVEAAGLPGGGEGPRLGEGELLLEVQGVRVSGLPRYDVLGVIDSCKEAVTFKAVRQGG
# Experiment: holdup assay
# Design: key: below the threshold = too weak to quantify, mostly under pKd 3.1 to 4
# Conditions: plain residues with an end cap or a label only (N-terminal biotin on a linker: ado-ado)
row,Binder,pKd
1,"RHGSCVETSL [TMEM151B, Q8IW70]",below the threshold

# Target: CASK, O14936
# Sequence (O14936 487-570): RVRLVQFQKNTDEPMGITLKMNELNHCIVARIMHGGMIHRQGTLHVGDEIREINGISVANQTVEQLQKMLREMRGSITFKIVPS
# Experiment: holdup assay
# Design: key: below the threshold = too weak to quantify, mostly under pKd 3.1 to 4
# Conditions: plain residues with an end cap or a label only (N-terminal biotin on a linker: ado-ado)
row,Binder,pKd
1,"RHGSCVETSL [TMEM151B, Q8IW70]",below the threshold

# Target: T6, PTPN13_1, Q12923
# Experiment: holdup assay
# Design: key: below the threshold = too weak to quantify, mostly under pKd 3.1 to 4
# Conditions: plain residues with an end cap or a label only (N-terminal biotin on a linker: ado-ado)
row,Binder,pKd
1,"RHGSCVETSL [TMEM151B, Q8IW70]",below the threshold

# Target: T7, DLG3_3, Q92796
# Experiment: holdup assay
# Design: key: below the threshold = too weak to quantify, mostly under pKd 3.1 to 4
# Conditions: plain residues with an end cap or a label only (N-terminal biotin on a linker: ado-ado)
row,Binder,pKd
1,"RHGSCVETSL [TMEM151B, Q8IW70]",4.2

# Target: LNX1_1, Q8TBB1
# Sequence (Q8TBB1 261-371): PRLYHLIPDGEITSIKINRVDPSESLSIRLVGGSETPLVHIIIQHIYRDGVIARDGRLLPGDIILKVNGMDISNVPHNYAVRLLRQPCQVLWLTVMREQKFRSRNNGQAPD
# Experiment: holdup assay
# Design: key: below the threshold = too weak to quantify, mostly under pKd 3.1 to 4
# Conditions: plain residues with an end cap or a label only (N-terminal biotin on a linker: ado-ado)
row,Binder,pKd
1,"RHGSCVETSL [TMEM151B, Q8IW70]",3.66

# Target: GRIP2_5, Q9C0E4
# Sequence (Q9C0E4 544-642): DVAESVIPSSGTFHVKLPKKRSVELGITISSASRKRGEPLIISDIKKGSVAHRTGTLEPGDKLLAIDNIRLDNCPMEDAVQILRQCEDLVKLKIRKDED
# Experiment: holdup assay
# Design: key: below the threshold = too weak to quantify, mostly under pKd 3.1 to 4
# Conditions: plain residues with an end cap or a label only (N-terminal biotin on a linker: ado-ado)
row,Binder,pKd
1,"RHGSCVETSL [TMEM151B, Q8IW70]",below the threshold

# Target: T8, NHERF3_1, Q5T2W1
# Experiment: holdup assay
# Design: key: below the threshold = too weak to quantify, mostly under pKd 3.1 to 4
# Conditions: plain residues with an end cap or a label only (N-terminal biotin on a linker: ado-ado)
row,Binder,pKd
1,"RHGSCVETSL [TMEM151B, Q8IW70]",5.38

# Target: PARD3_3, Q8TEW0
# Sequence (Q8TEW0 582-685): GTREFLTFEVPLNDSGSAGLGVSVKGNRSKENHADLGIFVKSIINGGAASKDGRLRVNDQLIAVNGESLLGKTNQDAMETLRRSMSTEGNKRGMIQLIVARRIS
# Experiment: holdup assay
# Design: key: below the threshold = too weak to quantify, mostly under pKd 3.1 to 4
# Conditions: plain residues with an end cap or a label only (N-terminal biotin on a linker: ado-ado)
row,Binder,pKd
1,"RHGSCVETSL [TMEM151B, Q8IW70]",3.59

# Target: T9, APBA2_1, Q99767
# Experiment: holdup assay
# Design: key: below the threshold = too weak to quantify, mostly under pKd 3.1 to 4
# Conditions: plain residues with an end cap or a label only (N-terminal biotin on a linker: ado-ado)
row,Binder,pKd
1,"RHGSCVETSL [TMEM151B, Q8IW70]",below the threshold

# Target: GORASP1, Q9BQQ3
# Sequence (Q9BQQ3 1-208): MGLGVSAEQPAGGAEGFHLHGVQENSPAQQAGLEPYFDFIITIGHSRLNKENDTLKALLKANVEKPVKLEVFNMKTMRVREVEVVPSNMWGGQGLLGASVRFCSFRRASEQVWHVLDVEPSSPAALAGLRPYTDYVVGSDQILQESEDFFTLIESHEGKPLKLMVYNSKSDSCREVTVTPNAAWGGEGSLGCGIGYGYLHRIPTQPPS
# Experiment: holdup assay
# Design: key: below the threshold = too weak to quantify, mostly under pKd 3.1 to 4
# Conditions: plain residues with an end cap or a label only (N-terminal biotin on a linker: ado-ado)
row,Binder,pKd
1,"RHGSCVETSL [TMEM151B, Q8IW70]",below the threshold

# Target: NHERF2_2, Q15599
# Sequence (Q15599 142-238): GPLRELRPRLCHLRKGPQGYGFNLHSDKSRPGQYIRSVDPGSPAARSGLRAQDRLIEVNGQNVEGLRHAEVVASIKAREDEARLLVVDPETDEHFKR
# Experiment: holdup assay
# Design: key: below the threshold = too weak to quantify, mostly under pKd 3.1 to 4
# Conditions: plain residues with an end cap or a label only (N-terminal biotin on a linker: ado-ado)
row,Binder,pKd
1,"RHGSCVETSL [TMEM151B, Q8IW70]",4.75

# Target: T10, TIAM2, Q8IVF5
# Experiment: holdup assay
# Design: key: below the threshold = too weak to quantify, mostly under pKd 3.1 to 4
# Conditions: plain residues with an end cap or a label only (N-terminal biotin on a linker: ado-ado)
row,Binder,pKd
1,"RHGSCVETSL [TMEM151B, Q8IW70]",below the threshold
